Measured values published in patent publication US20100196361A1, “Method of inhibition of vascular development using an antibody” (DYAX CORP., priority 2003, published 2010).

T1: Tie1-EpoR chimeric receptor (UniProt P14753+P35590)
T1 construct: PCR amplified extracellular part of human Tie1 (bp 37-2316 of X60975); expressed in transfected cells
T1 sequence (P35590+P14753 with tags, fused parts or gaps): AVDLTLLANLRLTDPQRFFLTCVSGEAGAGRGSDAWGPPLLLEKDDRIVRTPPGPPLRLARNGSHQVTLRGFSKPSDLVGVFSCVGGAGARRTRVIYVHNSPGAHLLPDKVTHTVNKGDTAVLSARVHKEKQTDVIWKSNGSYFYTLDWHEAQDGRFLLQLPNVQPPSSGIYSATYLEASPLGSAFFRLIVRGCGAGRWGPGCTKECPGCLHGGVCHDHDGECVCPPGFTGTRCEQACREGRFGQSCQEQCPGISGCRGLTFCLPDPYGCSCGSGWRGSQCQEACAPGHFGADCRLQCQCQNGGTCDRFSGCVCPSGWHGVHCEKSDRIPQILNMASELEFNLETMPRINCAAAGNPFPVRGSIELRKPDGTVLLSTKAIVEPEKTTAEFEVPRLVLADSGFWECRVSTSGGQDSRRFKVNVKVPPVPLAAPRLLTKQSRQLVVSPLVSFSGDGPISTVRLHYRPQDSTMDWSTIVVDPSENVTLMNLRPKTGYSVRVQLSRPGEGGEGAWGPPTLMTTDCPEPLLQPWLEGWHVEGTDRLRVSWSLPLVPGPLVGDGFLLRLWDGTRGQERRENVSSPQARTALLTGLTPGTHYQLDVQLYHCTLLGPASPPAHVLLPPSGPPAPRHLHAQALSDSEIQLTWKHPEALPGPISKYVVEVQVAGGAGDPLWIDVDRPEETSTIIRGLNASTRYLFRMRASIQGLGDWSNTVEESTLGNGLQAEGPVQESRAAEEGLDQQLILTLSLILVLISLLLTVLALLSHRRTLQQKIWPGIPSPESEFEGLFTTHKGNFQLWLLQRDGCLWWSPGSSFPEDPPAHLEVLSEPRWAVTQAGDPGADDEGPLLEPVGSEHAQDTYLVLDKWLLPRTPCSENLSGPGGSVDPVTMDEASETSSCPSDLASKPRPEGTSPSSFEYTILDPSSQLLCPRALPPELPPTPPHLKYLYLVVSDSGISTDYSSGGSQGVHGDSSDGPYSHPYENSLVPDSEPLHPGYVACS


Target: T1, Tie1-EpoR chimeric receptor
Experiment: BaF3 bioassay (Tie1/EpoR chimeric BaF3 cell assay)
Type: cell-based, human
Conditions: 100 ng/ml E3 IgG together with 100 (1:1) or 500 (1:5) ng/ml test antibody
Description: BaF3 bioassay. To generate Tie1-EpoR expressing BaF3 cells for the bioassay, BaF3 pre-B cells were stably transfected with a nucleic acid that expresses chimeric receptor containing the extracellular domain of human Tie1 fused with the transmembrane and cytoplasmic domains of the mouse erythropoietin receptor. The nucleic acid used was a Tie1-EpoR chimeric cDNA in a pEF-BOS expression vector. The nucleic acid encoding the chimeric receptor was constructed by cloning the PCR amplified extracellular part of human Tie1 (bp 37-2316 of X60975) as EcoRI-BglII fragment into mEpoR-pcDNA vector. The cDNA encoding for the chimeric receptor consisting of the extracellular part of Tie1 fused with the transmembrane and intracellular domains of EpoR was subcloned into the pEF-BOS expression vector. Vector was linearized and co-transfected into BaF3 cells with pcDNA3.1(+) Zeo vector (Invitrogen). Stable cell pools were generated by selection with 250 μg/ml Zeocin. The expression of Tie1/EpoR fusion protein in several clones was analyzed by Western blotting with an antibody against EpoR.
To perform the assays, BaF3 cells expressing the Tie1-EpoR chimera were split in 96-well microtiter plates at 50 000 cells/well in the presence of the indicated concentrations of anti-Tie1 antibodies. The E3 antibody used in this study was the germ-lined E3 antibody (DX-2220). As controls, Zeocin resistant pools not expressing the Tie1-EpoR were used. After 48 h, the viability of the cells was determined by adding MTT (3-(4,5-dimethylthiazol-2-yl)-2,5-diphenyl tetrazolium bromide (Sigma), 0.5 mg/ml), followed by further 2 h of culture, addition of an equal volume of cell lysis solution (10% SDS, 10 mM HCl) and incubation overnight at 37° C. Absorbance was measured at 540 nm.
Stimulation and inhibition of Tie1 in Tie1-EpoR transfected BaF3 cells and human primary endothelial cells. Although no ligand for Tie1 has been identified, we used the following efficient screening method for Tie1-binding proteins. Interleukin-3 dependent pre-B-lymphocyte (BaF3) cells were transfected with a construct that expresses a Tie1-EpoR fusion protein. Since BaF3 cells are IL-3 dependent, they die unless IL-3 is provided. However, Tie-EpoR receptor expressing BaF3 cells can survive and proliferate if the medium contains a Tie1-binding protein, either a natural ligand or an artificial mimetic. Cell survival can be quantitated, e.g., by colorimetric MTT-assay, which measures mitochondrial activity.
To determine if any of the other monoclonal antibodies tested inhibit the survival effect of E3 IgG in Tie1-EpoR BaF3 assay, antibodies were studied in combination with E3 IgG. A concentration of 100 ng/ml of E3 IgG together with 100 (1:1) or 500 (1:5) ng/ml of the other antibodies were used and the viability of Tie1-EpoR cells was measured.

Molecule	effect on the survival effect of E3 IgG in Tie1-EpoR BaF3 assay
A2: anti-Tie1 antibody clone; variable domains in FIGS. 20A and 20B (antibody, V domains shown) VH: EVQLLESGGGLVQPGGSLRLSCAASGFTFSRYTMMWVRQAPGKGLEWVSGIYPSGGVTLYADSVKGRFTISRDNSKNTLYLQMNSLRAEDTAVYYCARVNYYDSSGYGPIAPGLDYWGQGTLVTVSSASTKGPSVFP VL: HSAQDIQMTQSPGTLSLSPGERATLSCRASRSVIISYVAWYQQKPGQAPRLLIYGASTRATGIPDRFSGSGSGTDFTLTISRLEPEDFAVYFCQLYGRSPRIIFGQGTRLEIK	inhibited the viability effect of E3 IgG to some extent
C7: anti-Tie1 antibody clone; variable domains in FIGS. 25A and 25B (antibody, V domains shown) VH: EVQLLESGGGLVQPGGSLRLSCAASGFTFSRYVMYWVRQAPGKGLEWVSVIYPSGGATYYADSVKGRFTISRDNSKNTLYLQMNSLRAEDTAVYYCARRGSSGAFDYWGQGTLVTVSSASTKGPSVFP VL: HSAQSVLTQPASVSGSPGQSITISCTGTSSDIGRYNYASWYQQRPGKSPKLLIYEVSDRPSGVSNRFSGSKSGNTASLIISGLQAEDEADYYCSSYSSTNSLQVVFGGGTKLSVLGQPKAAPSVTLFPPSSEELQANKATLVCL	promoted the survival of Tie1/EpoR BaF3 cells in combination with E3 IgG
P-B3: anti-Tie1 antibody clone; variable domains in FIGS. 12A and 12B (antibody, V domains shown) VH: EVQLLESGGGLVQPGGSLRLSCAASGFTFSRYGMHWVRQAPGKGLEWVSVISPSGGMTYYADSVKGRFTISRDNTKNTLYLQMNSLRAEDTAVYYCARVGATGPFDIWGQGTMVTVSSASTKGPSVFPLAP VL: QDIQMTQSPATLSLSPGERATLSCRASQSVSTYLAWYQQKPGQAPRLLIYDASNRATGIPGRFSGSGSGTDFTLTISSLEAEDFAVYYCQQRSSWPITFGQG	inhibited the viability effect of E3 IgG to some extent
P-C6: anti-Tie1 antibody clone; variable domains in FIGS. 13A and 13B (antibody, V domains shown) VH: EVQLLESGGGLVQPGGSLRLSCAASGFTFSHYGMTWVRQAPGKGLEWVSVISPSGGQTGYADSVKGRFTISRDNSKNTLYLQMNSLRAEDTAVYYCAGGGYAAFDYWGQGTLVTVSSASTKGPSVFPLAPSSKSTSGGTAALG VL: QDIQMTQSPATLSLSPGERATLSCRASQSVSSYLAWYQQKPGQAPRLLIYDASNRATGIPARFSGSGSGTDFTLTISSLEPEDFAVYYCQQRSNWPLTFGGG	inhibited the viability effect of E3 IgG to some extent
A10: anti-Tie1 antibody clone; variable domains in FIGS. 21A and 21B (antibody, V domains shown) VH: EVQLLESGGGLVQPGGSLRLSCAASGFTFSNYVMVWVRQAPGKGLEWVSGIYPSGGHTKYADSVKGRFTISRDNSKNTLYLQMNSLRAEDTAVYYCARVNYYDSSGYGPIAPGLDYWGQGTLV VL: HSAQDIQMTQSPGTLSLSPGERATLFCRASQRVTSNSLAWYQQRPGQAPRLLIYDASTRATGIPDRFSGSGSGRDFTLTISRLEPEDFAVYYCQRYGSSVLYSFGQGTKLEIT	inhibited the viability effect of E3 IgG to some extent
P-B1: anti-Tie1 antibody clone; variable domains in FIGS. 11A and 11B (antibody, V domains shown) VH: EVQLLESGGGLVQPGGSLRLSCAASGFTFSRYPMVWVRQAPGKGLEWVSVISPSGGQTFYADSVKGRFTISRDNSKNTLYLQMNSLRAEDTAVYYCARGVLTTAFDIWGQGTMVTVSSASTKGPSVFPLAPSSK VL: QDIQMTQSPSSLSASVGDRVTITCRASQNINSYLNWYQQKPGQAPKLLIYAASNLETAVPSRFSGSGSGTDFTLTISSLQPEDFATYYCQQFNTYPLTFGGG	inhibited the viability effect of E3 IgG to some extent

Target: Tie1 (Homo sapiens, UniProt P35590)
Experiment: Competition with E3 for binding to Tie1
Conditions: not given

Tie1, sequence (P35590 22-1138): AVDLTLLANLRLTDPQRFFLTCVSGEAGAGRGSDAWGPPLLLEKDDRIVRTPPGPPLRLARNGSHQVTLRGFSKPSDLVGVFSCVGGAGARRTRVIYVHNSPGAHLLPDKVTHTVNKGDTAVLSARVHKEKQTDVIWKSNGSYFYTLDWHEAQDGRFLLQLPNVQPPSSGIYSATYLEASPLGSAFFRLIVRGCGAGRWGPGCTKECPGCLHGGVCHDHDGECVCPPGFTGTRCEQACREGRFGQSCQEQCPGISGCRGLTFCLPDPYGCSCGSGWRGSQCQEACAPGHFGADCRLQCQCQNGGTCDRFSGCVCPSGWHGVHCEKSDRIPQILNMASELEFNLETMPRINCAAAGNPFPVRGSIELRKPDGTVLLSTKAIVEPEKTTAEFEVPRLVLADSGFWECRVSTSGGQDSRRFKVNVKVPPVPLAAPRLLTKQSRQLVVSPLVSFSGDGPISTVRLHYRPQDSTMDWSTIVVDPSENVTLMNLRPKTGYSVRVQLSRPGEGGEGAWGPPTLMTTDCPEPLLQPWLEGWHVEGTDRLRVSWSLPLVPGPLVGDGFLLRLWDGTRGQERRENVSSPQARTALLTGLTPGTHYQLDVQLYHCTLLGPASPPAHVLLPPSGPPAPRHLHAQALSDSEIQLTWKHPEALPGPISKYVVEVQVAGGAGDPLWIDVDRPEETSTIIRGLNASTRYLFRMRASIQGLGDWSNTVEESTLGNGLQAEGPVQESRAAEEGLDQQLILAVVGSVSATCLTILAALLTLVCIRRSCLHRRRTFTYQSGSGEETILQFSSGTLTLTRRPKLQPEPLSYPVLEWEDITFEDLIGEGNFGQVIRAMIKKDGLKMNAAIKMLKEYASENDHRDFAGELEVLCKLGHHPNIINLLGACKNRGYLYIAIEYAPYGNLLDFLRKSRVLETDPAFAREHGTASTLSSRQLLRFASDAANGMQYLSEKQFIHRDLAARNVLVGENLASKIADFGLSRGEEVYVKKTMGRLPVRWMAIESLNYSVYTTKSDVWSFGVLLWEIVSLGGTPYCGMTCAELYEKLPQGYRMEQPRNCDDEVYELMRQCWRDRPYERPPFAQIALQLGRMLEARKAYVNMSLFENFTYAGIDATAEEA

competition with E3 for binding to Tie1	Molecule
competes with E3 for binding to Tie1	M0044B08: Tie1-binding antibody; LC SEQ ID NO:180, HC SEQ ID NO:182 (antibody, V domains shown, Antibody) VH: EVQLLESGGGLVQPGGSLRLSCAASGFTFSAYGMGWVRQAPGKGLEWVSVISPSGGQTSYADSVKGRFTISRDNSKNTLYLQMNSLRAEDTALYYCAGGDRYGPLHYWGQGTLVTVSS VL: QDIQMTQSPSFLSASVGDRVTISCRASQYISIYLNWYQQRPGEAPKLLINAASSLQSGDPSRFSGSGSGTDFTLTINSLQPDDFATYYCQQYKSYPLTFGEGTKVEIK
competes with E3 for binding to Tie1	M0045B03: Tie1-binding antibody; LC SEQ ID NO:260, HC SEQ ID NO:262 (antibody, V domains shown, Antibody) VH: EVQLLESGGGLVQPGGSLRLSCAASGFTFSQYPMIWVRQAPGKGLEWVSVISPSGGHTSYADSVKGRFTISRDNSKNTLYLQMNSLRAEDTAVYYCARIQYYGGAFDIWGQGKMVTVSS VL: QDIQMTQSPDTLSLSPGERATLSCRASQSISRYLAWYQQRPGQAPSLLIYDASERAAGIPARFSGSGSGTDFTLTISSLEPEDFAVYYCQQRGNWPLTFGGGTKVDIR
competes with E3 for binding to Tie1	M0056G08: Tie1-binding antibody; LC SEQ ID NO:568, HC SEQ ID NO:570 (antibody, V domains shown, Antibody) VH: EVQLLESGGGLVQPGGSLRLSCAASGFTFSHYGMWWVRQAPGKGLEWVSVISPSGGQTNYADSVKGRFTISRDNSKNTLYLQMNSLRAEDTAVYYCAKGQIHGGNLASWGQGTLVTVSS VL: QDIQMTQSPGTLSLSPGERATLSCRASQSISSSYLAWYQQKPGQAPRLLLYGTSNRATGIPDRFSGSGSGTDFTLTISRLEPEDFALYYCQQRYKWPLTFGPGTKVDFK
competes with E3 for binding to Tie1	M0053F04: Tie1-binding antibody; LC SEQ ID NO:392, HC SEQ ID NO:394 (antibody, V domains shown, Antibody) VH: EVQLLESGGGLVQPGGSLRLSCAASGFTFSGYGMYWVRQAPGKGLEWVSVISPSGGYTHYADSVKGRFTISRDNSKNTLYLQMNSLRAEDTAVYYCARAYSSGWYLDYWGQGTLVTVSS VL: QDIQMTQSPATLSLSPGERATLSCRASQSVSSYLAWYQQKPGQAPRLLIYDTSNRATGIPARFSGSGSGTDFTLTISSLEPEDFAVYYCQQRSNWPITFGQGTRLEIK
